Columns and labels:
[1] = molecular target: VEGF on HT-29 cells (human) (UniProt P15692); assay: flow cytometry; conditions: hypoxia 1% O2, 37 C, scrambled signal subtracted, SPR (BIAcore 2000, CM5): PBS + 0.005% Tween-20, 25 C, 30 ul/min, aptamer 0.2-100 nM, 1:1 Langmuir fit, cells: culture medium, 2 h
VEGF165 = VEGF165 (human, UniProt P15692-4 27-191); assay: SPR; SPR (BIAcore 2000, CM5): PBS + 0.005% Tween-20, 25 C, 30 ul/min, aptamer 0.2-100 nM, 1:1 Langmuir fit; cells: culture medium, 37 C, 2 h, 1% O2; conditions: protein: commercial, tags: carrier-free, chain copies: 2
VEGF165, human = VEGF165, human (Homo sapiens (Human), UniProt P15692 27-191); assay: SPR; PBS, 0.005% Tween-20, 25 C; protein amine-coupled on CM5; conditions: chain copies: 2
VEGF121 = VEGF121 (human, UniProt P15692-9 27-147); assay: SPR; SPR (BIAcore 2000, CM5): PBS + 0.005% Tween-20, 25 C, 30 ul/min, aptamer 0.2-100 nM, 1:1 Langmuir fit; cells: culture medium, 37 C, 2 h, 1% O2; conditions: protein: commercial; tags: carrier-free; chain copies: 2; hairpin
Sequence of VEGF121 (P15692 other isoform, or with tags, fused parts or gaps): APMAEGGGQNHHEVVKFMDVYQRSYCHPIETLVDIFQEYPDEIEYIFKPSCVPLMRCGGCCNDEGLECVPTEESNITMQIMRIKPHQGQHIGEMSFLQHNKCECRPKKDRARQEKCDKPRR

Sequence of VEGF165 (P15692 other isoform, or with tags, fused parts or gaps): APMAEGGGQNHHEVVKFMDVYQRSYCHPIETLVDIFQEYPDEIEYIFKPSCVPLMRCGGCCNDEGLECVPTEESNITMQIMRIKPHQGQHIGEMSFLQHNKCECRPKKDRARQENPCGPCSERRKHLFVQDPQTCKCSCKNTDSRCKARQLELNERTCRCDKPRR
Sequence of VEGF on HT-29 cells (human) (P15692 whole entry): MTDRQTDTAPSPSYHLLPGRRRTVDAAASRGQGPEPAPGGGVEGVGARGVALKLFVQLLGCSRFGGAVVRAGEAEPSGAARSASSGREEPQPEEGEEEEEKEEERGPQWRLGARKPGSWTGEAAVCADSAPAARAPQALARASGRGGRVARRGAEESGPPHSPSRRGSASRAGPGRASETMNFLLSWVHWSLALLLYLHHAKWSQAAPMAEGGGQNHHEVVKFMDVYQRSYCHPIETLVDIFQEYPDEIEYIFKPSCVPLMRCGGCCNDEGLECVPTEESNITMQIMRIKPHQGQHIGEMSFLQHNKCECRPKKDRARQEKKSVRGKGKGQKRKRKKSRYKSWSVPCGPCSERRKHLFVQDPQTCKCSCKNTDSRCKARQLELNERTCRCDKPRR

## CAATTGGGCCCGTCCGTATGGTGGGT [SL2-B Texas Red]
[1]
  Kd: 1 nM

B1: VEa5 (ssDNA)
DNA: ATACCAGTCTATTCAATTGGGCCCGTCCGTATGGTGGGTGTGCTGGCCAGATAGTATGTGCAATCA
VEGF165; 3 stem-loops (mfold)
  Kd: 120 ± 1.8 nM
VEGF165, human
  Kd: 120 ± 1.8 nM

B2: SL2-B (ssDNA)
DNA: CAATTGGGCCCGTCCGTATGGTGGGT
VEGF121
  Kd: 10200 ± 1890 nM
VEGF165; hairpin
  Kd: 0.5 ± 0.32 nM

B3: SL2 (ssDNA)
DNA: CCCGTCCGTATGGTGGG
VEGF165; hairpin
  Kd: 49 ± 2.4 nM

B4: SL1 (ssDNA)
DNA: ATACCAGTCTATTCAATTGG
VEGF165; hairpin
  binding result: no binding

B5: SL2-A (ssDNA)
DNA: GCCCGTCCGTATGGTGGGT
VEGF165; hairpin
  Kd: 10 ± 1.1 nM

From PMC3281051, “Probing High Affinity Sequences of DNA Aptamer against VEGF165”
